From PMC6331215 (Journal of molecular biology, 2018)

Key:
[1] = target: M. marinum EspG3 (construct for SAXS) (M. marinum E11) (UniProt B2HNX0); experiment: SAXS
[2] = target: the molecule itself; experiment: SAXS

“M. marinum EspG3 (construct for SAXS) (from UniProt B2HNX0 1-298) (natural protein)” gave a dimeric fraction at 4.0 mg/ml (wing-shaped dimer model, 4L4W) [1] of 1 and a dimeric fraction at 6.0 mg/ml (wing-shaped dimer model, 4L4W) [1] of 1.

B1: M. marinum EspG1 (natural protein)
chain: MTGPLATGRAGTGDDVVGVEVTIDGMLVIADRLHLVDFPVTLGIRPNIPQEDLREIVWDQVARDLTAQGVLDHNGQPHPAVAAMVDTLSRADRTLEGRWWRRDVGGVMVRFVVCRKGERHVIAVRDGDMLVLQLVAPRVGLAGMVTAVLGTAEPANVEPLTGIASELGECTNAAQLTRYGLTPTTARLYTEIVTNPKSWVEIVASERHPGGTTTHTKAAAGVLDSAHGRLVSLPRQVGGELYGSFLPGTEQNLQRALDSLLELLPSGSWLDRADATARG
In the case of B1, the “stoichiometry N” value [2] is reported as 2.
